Earlier results as cited in publication PMC4080432.
Like-named read-outs stand apart in the source and are kept apart here.

Legend:
NapB (Escherichia coli) [1] = molecular target: NapB (Escherichia coli) (UniProt P0ABL3)
NapB (Escherichia coli) [2] = molecular target: NapB (Escherichia coli) (UniProt P0ABL3); remark: listed apart in the source

UniProt P0ABL3, sequence (P0ABL3 28-149): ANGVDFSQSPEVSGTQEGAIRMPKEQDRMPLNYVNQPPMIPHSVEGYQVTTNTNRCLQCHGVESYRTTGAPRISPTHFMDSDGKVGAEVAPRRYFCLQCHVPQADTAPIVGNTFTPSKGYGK

- Kd (NapB (Escherichia coli) [1]): 32 µM
- Kd (NapB (Escherichia coli) [2]): 15 µM
Substance: NapA (from UniProt P33937)
